From paper PMC8376927 (2021)
Non-standard residues stand in square brackets, D forms with d. No end group written: not given here. *: point of attachment. 5FAM = O=C1OC2(c3ccc(O)cc3Oc3cc(O)ccc32)c2ccc(C(=O)*)cc21; pS = N[C@@H](COP(=O)(O)O)C(=O)O

Molecular target: T1, Human 14-3-3γ WT (human, UniProt P61981 1-247)
T1 chain: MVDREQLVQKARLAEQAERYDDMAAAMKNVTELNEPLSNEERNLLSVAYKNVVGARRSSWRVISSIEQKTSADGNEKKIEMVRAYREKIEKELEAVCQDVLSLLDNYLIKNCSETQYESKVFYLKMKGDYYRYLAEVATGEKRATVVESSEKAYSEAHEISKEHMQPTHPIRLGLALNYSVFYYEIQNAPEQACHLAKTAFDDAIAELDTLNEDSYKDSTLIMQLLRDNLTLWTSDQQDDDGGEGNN
Test: FP

B1: FAM-aidDAPK-pS318 peptide (FAM-RRRWKLpSFSIV) (peptide)
peptide: 5FAM-RRRWKL[pS]FSIV
  Kd: 48 µM
